Test results taken from patent publication US20210130436A1 (published 2021).
Residue numbers refer to the chain shown, from its start. In names and notes the source's numbering stands.

B1: A26E/Q27R/E35D/M47L/N48Y/L85Q CD80 IgV-Fc (Fc fusion, not shown: a dimerising Fc or GST)
chain: VIHVTKEVKEVATLSCGHNVSVEELERTRIYWQKDKKMVLTMMSGDLYIWPEYKNRTIFDITNNLSIVILALRPSDEGTYECVVQKYEKDAFKREHLAEVTLSVKAD
B2: variant CD80 IgV-Fc (inert) H18V/E35D/M47V/V68M/A71G/D90G (Fc fusion)
chain: B1 chain with H18V, E26A, R27Q, L47V, Y48N, V68M, A71G, Q85L, D90G
notes: not shown: inert human IgG1 Fc
B3: variant CD80 IgV-Fc (inert) H18V/A26P/E35D/M47L/V68M/A71G (Fc fusion)
chain: B1 chain with H18V, E26P, R27Q, Y48N, V68M, A71G, Q85L
notes: as for B2
B4: variant CD80 IgV-Fc (inert) H18Y/A26P/E35D/M47Y/V68I/A71G/D90G (Fc fusion)
chain: B1 chain with H18Y, E26P, R27Q, L47Y, Y48N, V68I, A71G, Q85L, D90G
notes: as for B2
B5: variant CD80 IgV-Fc (inert) H18V/A26K/E35D/M47L/V68M/A71G (Fc fusion)
chain: B1 chain with H18V, E26K, R27Q, Y48N, V68M, A71G, Q85L
notes: as for B2
B6: variant CD80 IgV-Fc (inert) H18Y/E35D/M47V/V68L/A71G/D90G (Fc fusion)
chain: B1 chain with H18Y, E26A, R27Q, L47V, Y48N, V68L, A71G, Q85L, D90G
notes: as for B2
B7: E35D/M47I/T62S/L85Q/E88D CD80 IgV-Fc (Fc fusion, not shown: a dimerising Fc or GST)
chain: B1 chain with E26A, R27Q, L47I, Y48N, T62S, E88D
B8: variant CD80 IgV-Fc E35D/D46V/M47I/A71G/F92V (Fc fusion, not shown: a dimerising Fc or GST)
chain: B1 chain with E26A, R27Q, D46V, L47I, Y48N, A71G, Q85L, F92V
B9: variant CD80 IgV-Fc (inert) H18L/A26N/D46E/V68M/A71G/D90G (Fc fusion)
chain: VIHVTKEVKEVATLSCGLNVSVEELNQTRIYWQKEKKMVLTMMSGEMNIWPEYKNRTIFDITNNLSIMILGLRPSDEGTYECVVLKYEKGAFKREHLAEVTLSVKAD
notes: as for B2
B10: variant CD80 IgV-Fc (inert) H18V/A26G/E35D/M47V/V68M/A71G/D90G (Fc fusion)
chain: B9 chain with L18V, N26G, E35D, E46D, M47V
notes: as for B2
B11: variant CD80 IgV-Fc (inert) H18I/A26P/E35D/M47V/V68M/A71G (Fc fusion)
chain: B9 chain with L18I, N26P, E35D, E46D, M47V, G90D
notes: as for B2
B12: variant CD80 IgV-Fc (inert) H18Y/A26P/E35D/M47I/V68M/A71G (Fc fusion)
chain: B9 chain with L18Y, N26P, E35D, E46D, M47I, G90D
notes: as for B2
B13: variant CD80 IgV-Fc (inert) H18T/A26N/E35D/M47L/V68M/A71G (Fc fusion)
chain: B9 chain with L18T, E35D, E46D, M47L, G90D
notes: as for B2
B14: variant CD80 IgV-Fc H18Y/E35D/M38I/M47L/V68M/L85M (Fc fusion, not shown: small tags and cut ends; a dimerising Fc or GST)
chain: B1 chain with H18Y, E26A, R27Q, M38I, Y48N, V68M, Q85M
B15: variant CD80 IgV-Fc (inert) H18C/A26P/E35D/M47L/V68M/A71G (Fc fusion)
chain: B9 chain with L18C, N26P, E35D, E46D, M47L, G90D
notes: as for B2
B16: variant CD80 IgV-Fc (inert) H18V/A26Q/E35D/M47V/V68L/A71G/D90G (Fc fusion)
chain: B9 chain with L18V, N26Q, E35D, E46D, M47V, M68L
notes: as for B2
B17: variant CD80 IgV-Fc (inert) H18V/A26D/E35D/M47V/V68M/A71G/D90G (Fc fusion)
chain: B9 chain with L18V, N26D, E35D, E46D, M47V
notes: as for B2
B18: variant CD80 IgV-Fc (inert) H18F/A26N/E35D/M47V/V68M/A71G/D90K (Fc fusion)
chain: B9 chain with L18F, E35D, E46D, M47V, G90K
notes: as for B2
B19: variant CD80 IgV-Fc (inert) H18F/A26D/E35D/D46E/M47T/V68M/A71G/D90G (Fc fusion)
chain: B9 chain with L18F, N26D, E35D, M47T
notes: as for B2
B20: variant CD80 IgV-Fc (inert) H18Y/E35D/M47V/V68M/A71G (Fc fusion)
chain: B9 chain with L18Y, N26A, E35D, E46D, M47V, G90D
notes: Fc fusions are dimeric by the general description; not shown: inert human IgG1 Fc
B21: variant CD80 IgV-Fc (inert) H18L/E35D/M47V/V68M/A71G/D90G (Fc fusion)
chain: B9 chain with N26A, E35D, E46D, M47V
notes: as for B2
B22: WT CD80 ECD-Fc (Fc fusion, not shown: a dimerising Fc or GST)
chain: VIHVTKEVKEVATLSCGHNVSVEELAQTRIYWQKEKKMVLTMMSGDMNIWPEYKNRTIFDITNNLSIVILALRPSDEGTYECVVLKYEKDAFKREHLAEVTLSVKADFPTPSISDFEIPTSNIRRIICSTSGGFPEPHLSWLENGEELNAINTTVSQDPETELYAVSSKLDFNMTTNHSFMCLIKYGHLRVNQTFNWNTTKQEHFPDN
notes: The label 'H22.6' is not explained; also called WT CD80 ECD-Fc H22.6
B23: wild-type CD80 ECD-Fc (R&D Systems) (Fc fusion)
chain: B22 chain
notes: This is a commercial protein; also called WT CD80 ECD-Fc (R&D); unmodified CD80-ECD-Fc fusion molecule; not shown: Bought protein (R&D Systems)

Legend:
human CD28 [1] = target: T1, human CD28 (human, UniProt P10747 19-220); experiment: flow cytometry, Jurkat/IL2 reporter cells (endogenous CD28), 33.3 nM, PE anti-human Fc
T1 construct: whole, on cells; Endogenous CD28 of Jurkat/IL2 reporter cells

human CD28 [2] = target: T2, human CD28 (human, UniProt P10747 19-220); experiment: flow cytometry MFI relative to WT CD80 IgV-Fc, Jurkat cells (CD28), 33.3 nM
T2 construct: whole, on cells; Jurkat/IL2 reporter cells, which endogenously express CD28

human CTLA-4 [3] = target: T3, human CTLA-4 (human, UniProt P16410 36-223); experiment: flow cytometry, CHO cells stably expressing huCTLA-4, 33.3 nM Fc fusion, PE anti-human Fc
T3 construct: whole, on cells; CHO cells stably expressing huCTLA4; also called huCTLA4
T3 sequence (P16410 36-223): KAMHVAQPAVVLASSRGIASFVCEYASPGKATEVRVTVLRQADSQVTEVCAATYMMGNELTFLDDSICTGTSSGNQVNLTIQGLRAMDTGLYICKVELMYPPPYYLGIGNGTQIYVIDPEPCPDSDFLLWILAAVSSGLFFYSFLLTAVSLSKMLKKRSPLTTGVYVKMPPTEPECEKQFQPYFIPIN

human CTLA-4 [4] = target: T3, human CTLA-4; experiment: flow cytometry MFI relative to WT CD80 IgV-Fc, CHO/huCTLA-4 cells, 33.3 nM
human CD28 [5] = target: T2, human CD28; experiment: flow cytometry, Jurkat/IL2 reporter cells (endogenous CD28), 33.3 nM Fc fusion, PE anti-human Fc
human PD-L1 [6] = target: T4, human PD-L1 (human, UniProt Q9NZQ7 19-290); experiment: flow cytometry MFI relative to WT CD80 IgV-Fc, CHO/huPD-L1 cells, 33.3 nM
T4 construct: whole, on cells; CHO cells stably expressing huPD-L1; also called huPD-L1
T4 sequence (Q9NZQ7 19-290): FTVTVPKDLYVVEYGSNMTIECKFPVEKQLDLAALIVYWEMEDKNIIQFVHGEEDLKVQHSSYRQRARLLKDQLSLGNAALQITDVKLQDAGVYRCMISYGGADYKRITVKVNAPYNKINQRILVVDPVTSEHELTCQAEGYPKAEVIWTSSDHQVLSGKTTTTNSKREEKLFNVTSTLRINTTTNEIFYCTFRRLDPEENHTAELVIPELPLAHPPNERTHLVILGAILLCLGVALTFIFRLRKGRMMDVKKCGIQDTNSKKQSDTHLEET

human PD-L1 [7] = target: T4, human PD-L1; experiment: flow cytometry, MFI on CHO/huPD-L1 cells divided by MFI on Jurkat cells (CD28), 33.3 nM
human PD-L1 [8] = target: T4, human PD-L1; experiment: flow cytometry, CHO cells stably expressing huPD-L1, 33.3 nM Fc fusion, PE anti-human Fc
human PD-L1 [9] = target: T5, human PD-L1 (human, UniProt Q9NZQ7 19-290); experiment: flow cytometry, CHO cells stably expressing huPD-L1, 33.3 nM, PE anti-human Fc
T5 construct: whole, on cells; also called huPD-L1
T5 sequence (Q9NZQ7 19-290): as above

human CTLA-4 [10] = target: T6, human CTLA-4 (human, UniProt P16410 36-223); experiment: flow cytometry, CHO cells stably expressing huCTLA4, 33.3 nM, PE anti-human Fc
T6 construct: whole, on cells; also called huCTLA4
T6 sequence (P16410 36-223): as the sequence (P16410 36-223) above

[11] = target: T7, human CD28, endogenously expressed on Jurkat/IL2 reporter cells (human, UniProt P10747 19-220); experiment: flow cytometry, Jurkat/IL2 reporter cells (endogenous CD28), 33.3 nM Fc fusion, PE anti-human Fc
T7 construct: This is the endogenous CD28 of Jurkat cells

[12] = target: T8, human PD-L1 (huPD-L1), full-length, stably expressed on CHO cells (human, UniProt Q9NZQ7 19-290); experiment: flow cytometry; MFI on PD-L1 CHO cells over MFI on Jurkat cells (CD28)
T8 construct: whole, on cells
T8 sequence (Q9NZQ7 19-290): as the sequence (Q9NZQ7 19-290) above

[13] = target: T8, human PD-L1 (huPD-L1), full-length, …; experiment: flow cytometry, CHO cells expressing huPD-L1
[14] = target: T8, human PD-L1 (huPD-L1), full-length, …; experiment: flow cytometry, CHO cells expressing huPD-L1; MFI against WT CD80 of the table

Row | Binder | MFI at 33.3 nM (human CD28 [1]) [MFI] | Fold change to WT CD80 (human CD28 [2]) [fold] | MFI at 33.3 nM (human CTLA-4 [3]) [MFI] | Fold change to WT CD80 (human CTLA-4 [4]) [fold] | MFI at 33.3 nM (human CD28 [5]) [MFI] | Fold change to WT CD80 (human PD-L1 [6]) [fold] | Ratio of PDL1:CD28 (human PD-L1 [7]) [ratio] | MFI at 33.3 nM (human PD-L1 [8]) [MFI] | MFI at 33.3 nM (human PD-L1 [9]) [MFI] | MFI at 33.3 nM (human CTLA-4 [10]) [MFI] | MFI at 33.3 nM [11] [MFI] | Ratio of PDL1:CD28 [12] [ratio] | MFI at 33.3 nM [13] [MFI] | Fold change to WT CD80 [14] [fold]
1 | B1 | 78 | – | – | – | – | – | – | – | – | – | – | – | – | –
2 | B2 | – | 20.7 | 16800 | 12.1 | 2120 | 264 | 20.6 | 43600 | – | – | – | – | – | –
3 | B3 | – | 24 | 16200 | 11.7 | 2450 | 318 | 21.4 | 52400 | – | – | – | – | – | –
4 | B4 | – | 17.8 | 8280 | 6 | 1820 | 165 | 15 | 27300 | – | – | – | – | – | –
5 | B5 | – | 35.7 | 22900 | 16.6 | 3640 | 408 | 18.5 | 67300 | – | – | – | – | – | –
6 | B6 | – | 25 | 16500 | 11.9 | 2550 | 290 | 18.8 | 47900 | – | – | – | – | – | –
7 | B7 | – | – | – | – | – | – | – | – | 8420 | 8910 | – | – | – | –
8 | B8 | – | – | – | – | – | – | – | – | – | – | 7540 | – | – | –
9 | B9 | – | 71.1 | 17000 | 12.3 | 7250 | 412 | 9.4 | 68000 | – | – | – | – | – | –
10 | B10 | – | 80.3 | 25400 | 18.4 | 8190 | 401 | 8.1 | 66200 | – | – | – | – | – | –
11 | B11 | – | 25.2 | 21900 | 15.8 | 2570 | 393 | 25.2 | 64900 | – | – | – | – | – | –
12 | B12 | – | 50.2 | 12200 | 8.8 | 5120 | 330 | 10.6 | 54500 | – | – | – | – | – | –
13 | B13 | – | 13.4 | 20900 | 15.1 | 1370 | 415 | 50.1 | 68500 | – | – | – | – | – | –
14 | B14 | – | – | – | – | – | – | – | – | – | – | – | 215 | 3590 | 69.7
15 | B15 | – | 18.7 | 23400 | 16.9 | 1910 | 406 | 35.2 | 67000 | – | – | – | – | – | –
16 | B16 | – | 30.6 | 17700 | 12.8 | 3130 | 204 | 10.7 | 33600 | – | – | – | – | – | –
17 | B17 | – | 61.3 | 22100 | 16 | 6250 | 409 | 10.8 | 67500 | – | – | – | – | – | –
18 | B18 | – | 31.1 | 15200 | 11 | 3170 | 136 | 7.1 | 22400 | – | – | – | – | – | –
19 | B19 | – | 59.1 | 17200 | 12.4 | 6030 | 167 | 4.6 | 27500 | – | – | – | – | – | –
20 | B20 | – | 31.6 | 23600 | 17.1 | 3230 | 393 | 20.1 | 64900 | – | – | – | – | – | –
21 | B21 | – | 62.2 | 20300 | 14.7 | 6350 | 392 | 10.2 | 64800 | – | – | – | – | – | –
22 | B22 | 30 | – | – | – | – | – | – | – | – | – | – | – | – | –
23 | B23 | – | – | – | – | – | – | – | – | – | – | 7630 | – | – | –
